Assay results from publication PMC6007489 (Nucleic Acids Research, 2018).

T1: His–Rad1–Rad10 (S. cerevisiae, UniProt P06777 1-1100; P06838 1-210)
T1 sequence (looked up) 1: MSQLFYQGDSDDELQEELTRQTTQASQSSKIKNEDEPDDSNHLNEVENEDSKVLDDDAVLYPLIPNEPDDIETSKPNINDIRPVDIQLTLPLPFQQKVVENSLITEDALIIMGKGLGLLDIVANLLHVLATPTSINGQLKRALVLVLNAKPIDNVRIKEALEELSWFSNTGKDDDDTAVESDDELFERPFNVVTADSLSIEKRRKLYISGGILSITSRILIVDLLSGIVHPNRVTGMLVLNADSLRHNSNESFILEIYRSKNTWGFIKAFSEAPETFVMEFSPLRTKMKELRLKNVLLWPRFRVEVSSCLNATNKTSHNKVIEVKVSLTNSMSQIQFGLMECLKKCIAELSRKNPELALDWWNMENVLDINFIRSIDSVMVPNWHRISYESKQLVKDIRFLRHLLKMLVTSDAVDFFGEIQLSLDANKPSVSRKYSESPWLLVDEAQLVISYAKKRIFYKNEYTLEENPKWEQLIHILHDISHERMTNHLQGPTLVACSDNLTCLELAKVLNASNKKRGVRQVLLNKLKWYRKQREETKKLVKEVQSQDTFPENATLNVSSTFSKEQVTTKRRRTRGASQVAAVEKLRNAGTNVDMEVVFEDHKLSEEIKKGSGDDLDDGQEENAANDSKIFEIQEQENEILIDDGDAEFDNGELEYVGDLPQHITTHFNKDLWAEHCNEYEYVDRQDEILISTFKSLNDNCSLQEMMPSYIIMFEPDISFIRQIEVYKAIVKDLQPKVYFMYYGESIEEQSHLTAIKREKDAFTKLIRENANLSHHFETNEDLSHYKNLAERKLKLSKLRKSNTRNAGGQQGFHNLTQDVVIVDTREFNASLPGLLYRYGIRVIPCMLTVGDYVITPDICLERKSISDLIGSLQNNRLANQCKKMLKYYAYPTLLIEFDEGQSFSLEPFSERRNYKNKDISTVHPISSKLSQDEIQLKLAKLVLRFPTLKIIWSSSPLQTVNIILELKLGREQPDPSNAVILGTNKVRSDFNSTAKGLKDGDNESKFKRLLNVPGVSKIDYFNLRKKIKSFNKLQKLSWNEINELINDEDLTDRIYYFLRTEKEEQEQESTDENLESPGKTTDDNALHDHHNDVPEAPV
T1 sequence (looked up) 2: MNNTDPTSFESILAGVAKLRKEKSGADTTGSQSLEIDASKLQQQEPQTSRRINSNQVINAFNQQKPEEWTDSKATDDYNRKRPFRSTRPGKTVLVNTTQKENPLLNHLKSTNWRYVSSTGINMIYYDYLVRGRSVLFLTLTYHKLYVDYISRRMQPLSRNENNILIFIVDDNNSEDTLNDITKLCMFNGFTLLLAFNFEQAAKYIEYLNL

B1: 6xHis–Saw1 (natural protein, S. cerevisiae, UniProt P39735 1-261, looked up)
chain: MAPSIATVKIARDMVLPLRIFVNRKQILQTNDKTSNKSNATIFEAPLLSNNSIICLKSPNTRIYLSQQDKKNLCDEIKEDLLLIVYELASPEIISSVLSKIRVGHSTDFQINVLPKLFAGADTDNAVTSHIQSVTRLAKFKYKLHYKHKWELDIFINSIKKIANLRHYLMFQTLTLNGFSLNAGPKTLLARKIEKQPQVPNLLIENGDADALDTPVEEDIKPVIEFMYKPVINLGEIIDVHVLHRPRRHKVRTQSKQPQEE

Legend:
Msh2–Msh3 [1] = target: T2, Msh2–Msh3 (S. cerevisiae, UniProt P25847 1-964; P25336 1-1018); assay: co-IP
T2 sequence (P25847 whole entry, chain 1 of 2): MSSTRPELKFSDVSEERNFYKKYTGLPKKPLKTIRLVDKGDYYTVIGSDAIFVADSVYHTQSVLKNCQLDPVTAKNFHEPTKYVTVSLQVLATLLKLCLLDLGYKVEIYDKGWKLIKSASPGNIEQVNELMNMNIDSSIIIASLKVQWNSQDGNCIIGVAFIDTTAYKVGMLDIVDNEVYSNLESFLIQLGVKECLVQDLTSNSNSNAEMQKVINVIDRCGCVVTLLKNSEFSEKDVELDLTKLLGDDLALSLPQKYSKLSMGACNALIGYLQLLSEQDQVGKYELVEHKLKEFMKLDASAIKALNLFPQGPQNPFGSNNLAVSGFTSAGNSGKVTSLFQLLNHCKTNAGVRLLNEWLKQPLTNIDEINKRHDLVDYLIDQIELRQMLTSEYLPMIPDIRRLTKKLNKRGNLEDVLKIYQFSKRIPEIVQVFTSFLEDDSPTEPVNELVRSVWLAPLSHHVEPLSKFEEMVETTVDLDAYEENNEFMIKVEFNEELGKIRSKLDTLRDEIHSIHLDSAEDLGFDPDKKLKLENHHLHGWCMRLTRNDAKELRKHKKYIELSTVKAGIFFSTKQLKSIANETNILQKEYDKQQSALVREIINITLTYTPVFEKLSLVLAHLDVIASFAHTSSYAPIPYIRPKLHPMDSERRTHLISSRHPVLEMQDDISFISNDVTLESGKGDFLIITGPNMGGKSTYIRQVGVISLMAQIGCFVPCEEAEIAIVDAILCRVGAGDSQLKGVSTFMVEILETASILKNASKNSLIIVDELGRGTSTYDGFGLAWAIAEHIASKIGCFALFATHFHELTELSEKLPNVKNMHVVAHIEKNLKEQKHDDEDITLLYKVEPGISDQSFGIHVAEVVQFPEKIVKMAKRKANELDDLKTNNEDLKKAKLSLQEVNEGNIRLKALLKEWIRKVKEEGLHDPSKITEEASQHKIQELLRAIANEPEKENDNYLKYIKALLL
T2 sequence (P25336 whole entry, chain 2 of 2): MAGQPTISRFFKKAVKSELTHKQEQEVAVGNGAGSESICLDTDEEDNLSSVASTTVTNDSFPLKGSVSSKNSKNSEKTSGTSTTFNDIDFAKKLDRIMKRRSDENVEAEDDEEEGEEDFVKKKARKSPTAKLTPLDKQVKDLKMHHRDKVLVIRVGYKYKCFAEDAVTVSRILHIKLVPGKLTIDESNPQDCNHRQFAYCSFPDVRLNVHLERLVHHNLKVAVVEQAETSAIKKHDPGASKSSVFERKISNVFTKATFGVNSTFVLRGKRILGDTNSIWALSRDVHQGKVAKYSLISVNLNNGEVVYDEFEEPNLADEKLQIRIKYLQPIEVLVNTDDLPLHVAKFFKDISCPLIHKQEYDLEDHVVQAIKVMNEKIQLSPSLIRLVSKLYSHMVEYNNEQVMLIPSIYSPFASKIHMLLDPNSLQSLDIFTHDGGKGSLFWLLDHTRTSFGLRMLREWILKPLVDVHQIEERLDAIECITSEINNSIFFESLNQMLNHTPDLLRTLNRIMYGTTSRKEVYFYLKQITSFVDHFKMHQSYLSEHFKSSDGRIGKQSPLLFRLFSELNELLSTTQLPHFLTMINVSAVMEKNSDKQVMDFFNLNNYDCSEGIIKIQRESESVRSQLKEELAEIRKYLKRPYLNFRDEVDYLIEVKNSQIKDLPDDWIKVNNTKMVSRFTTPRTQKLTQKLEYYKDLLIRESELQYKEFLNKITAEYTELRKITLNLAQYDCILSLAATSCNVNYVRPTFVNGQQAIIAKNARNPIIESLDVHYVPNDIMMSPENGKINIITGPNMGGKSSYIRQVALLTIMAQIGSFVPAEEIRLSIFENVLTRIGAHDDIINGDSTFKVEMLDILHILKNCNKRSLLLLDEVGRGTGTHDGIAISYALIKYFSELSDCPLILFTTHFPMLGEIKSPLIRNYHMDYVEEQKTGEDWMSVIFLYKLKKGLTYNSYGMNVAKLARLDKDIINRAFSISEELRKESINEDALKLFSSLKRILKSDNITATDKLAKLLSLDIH

His–Rad1–Rad10 = target: T1, His–Rad1–Rad10; assay: co-IP
6xHis–Saw1 = target: B1; assay: co-IP
Msh2–Msh3 [2] = target: T2, Msh2–Msh3; assay: far-Western, overlay or dot blot

binding result (Msh2–Msh3 [1]) | binding result (His–Rad1–Rad10) | fold immunoprecipitated relative to His–Rad1–Rad10 (6xHis–Saw1) | binding result (Msh2–Msh3 [2]) | Binder
binds | binds |  |  | B1
 |  | ~3 fold | binds | His–rad1R218A–Rad10 (complex, S. cerevisiae) chain 1: MSQLFYQGDSDDELQEELTRQTTQASQSSKIKNEDEPDDSNHLNEVENEDSKVLDDDAVLYPLIPNEPDDIETSKPNINDIRPVDIQLTLPLPFQQKVVENSLITEDALIIMGKGLGLLDIVANLLHVLATPTSINGQLKRALVLVLNAKPIDNVRIKEALEELSWFSNTGKDDDDTAVESDDELFERPFNVVTADSLSIEKRRKLYISGGILSITSAILIVDLLSGIVHPNRVTGMLVLNADSLRHNSNESFILEIYRSKNTWGFIKAFSEAPETFVMEFSPLRTKMKELRLKNVLLWPRFRVEVSSCLNATNKTSHNKVIEVKVSLTNSMSQIQFGLMECLKKCIAELSRKNPELALDWWNMENVLDINFIRSIDSVMVPNWHRISYESKQLVKDIRFLRHLLKMLVTSDAVDFFGEIQLSLDANKPSVSRKYSESPWLLVDEAQLVISYAKKRIFYKNEYTLEENPKWEQLIHILHDISHERMTNHLQGPTLVACSDNLTCLELAKVLNASNKKRGVRQVLLNKLKWYRKQREETKKLVKEVQSQDTFPENATLNVSSTFSKEQVTTKRRRTRGASQVAAVEKLRNAGTNVDMEVVFEDHKLSEEIKKGSGDDLDDGQEENAANDSKIFEIQEQENEILIDDGDAEFDNGELEYVGDLPQHITTHFNKDLWAEHCNEYEYVDRQDEILISTFKSLNDNCSLQEMMPSYIIMFEPDISFIRQIEVYKAIVKDLQPKVYFMYYGESIEEQSHLTAIKREKDAFTKLIRENANLSHHFETNEDLSHYKNLAERKLKLSKLRKSNTRNAGGQQGFHNLTQDVVIVDTREFNASLPGLLYRYGIRVIPCMLTVGDYVITPDICLERKSISDLIGSLQNNRLANQCKKMLKYYAYPTLLIEFDEGQSFSLEPFSERRNYKNKDISTVHPISSKLSQDEIQLKLAKLVLRFPTLKIIWSSSPLQTVNIILELKLGREQPDPSNAVILGTNKVRSDFNSTAKGLKDGDNESKFKRLLNVPGVSKIDYFNLRKKIKSFNKLQKLSWNEINELINDEDLTDRIYYFLRTEKEEQEQESTDENLESPGKTTDDNALHDHHNDVPEAPV chain 2: MNNTDPTSFESILAGVAKLRKEKSGADTTGSQSLEIDASKLQQQEPQTSRRINSNQVINAFNQQKPEEWTDSKATDDYNRKRPFRSTRPGKTVLVNTTQKENPLLNHLKSTNWRYVSSTGINMIYYDYLVRGRSVLFLTLTYHKLYVDYISRRMQPLSRNENNILIFIVDDNNSEDTLNDITKLCMFNGFTLLLAFNFEQAAKYIEYLNL
